Measurements: article PMC12802937 (Nucleic Acids Research, 2026)
Residue numbers refer to the chain shown, from its start.

Key:
Assay in all cases: SPR; Lge1-CT immobilised on a CM5 chip, Bre1-LR flown over; Biacore 8K, 25°C, 20 mM HEPES (pH 7.5), 200 mM sodium chloride, 0.02% Tween 20
Conditions in all cases: both partners purified
Bre1-LR E378K/E500K = target: T1, Bre1-LR E378K/E500K (budding yeast, UniProt Q07457 227-700, E378K | E500K)
T1 construct: source: E. coli BL21 Rosetta (DE3), purified (Ni-NTA, heparin, gel filtration)
T1 sequence (looked up): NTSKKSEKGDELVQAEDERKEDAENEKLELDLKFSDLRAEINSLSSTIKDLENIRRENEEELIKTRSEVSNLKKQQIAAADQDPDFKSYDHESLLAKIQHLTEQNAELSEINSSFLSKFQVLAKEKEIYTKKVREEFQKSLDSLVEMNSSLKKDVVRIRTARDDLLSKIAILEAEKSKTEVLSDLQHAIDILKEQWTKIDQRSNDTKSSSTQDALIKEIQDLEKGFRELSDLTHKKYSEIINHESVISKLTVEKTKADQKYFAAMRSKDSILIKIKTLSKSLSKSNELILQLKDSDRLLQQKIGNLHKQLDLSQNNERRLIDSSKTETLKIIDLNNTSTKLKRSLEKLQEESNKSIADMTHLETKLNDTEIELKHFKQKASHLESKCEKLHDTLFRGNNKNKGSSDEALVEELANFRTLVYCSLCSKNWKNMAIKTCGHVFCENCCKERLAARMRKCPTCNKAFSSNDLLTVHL

Bre1-LR K379E = target: T2, Bre1-LR K379E (budding yeast, UniProt Q07457 227-700, K379E)
T2 construct: source: E. coli BL21 Rosetta (DE3), purified (Ni-NTA, heparin, gel filtration)
T2 sequence (looked up): T1 sequence (looked up) with K152E, K153E, K274E

[1] = target: T3, Bre1-LR (Bre1 residues 227–700, LBD and RING domains), 6× histidine tag (budding yeast, UniProt Q07457 227-700)
T3 construct: two Bre1 polypeptides form the dimeric coiled-coils of the LBD in the crystal structure; also called WT; source: E. coli BL21 Rosetta (DE3), purified (Ni-NTA, heparin, gel filtration)
T3 sequence (looked up): T1 sequence (looked up) with K152E, K274E

Bre1-LR K534E = target: T4, Bre1-LR K534E (budding yeast, UniProt Q07457 227-700, K534E)
T4 construct: source: E. coli BL21 Rosetta (DE3), purified (Ni-NTA, heparin, gel filtration)
T4 sequence (looked up): T1 sequence (looked up) with K152E, K274E, K308E

Kd (Bre1-LR E378K/E500K): 29 nM
Kd (Bre1-LR K379E): 41.3 nM
Kd [1]: 17.5 nM
Kd (Bre1-LR K534E): 19.4 nM
B1: Lge1-CT (Lge1 residues 261–332), intein-chitin binding domain (CBD) tag construct (domain or fragment, budding yeast, UniProt Q02796 261-332, looked up)
chain: KNVKKTNNTESECEKAREVFKESDSIDSALEELNLKINSNELELRLLNNQCDKHALNIQLTQEKLDSLLLMQ
notes: Lge1, budding yeast, residues 261-332; residues 268–331 resolved in the electron density; the intein-CBD tag is named on the protein in the pull-down; also called intein-CBD-fused Lge1-CT; intein-CBD-tagged Lge1-CT; source: E. coli BL21 Rosetta (DE3): cleared cell extract on chitin resin (pull-down); purified (chitin, heparin, gel filtration) for ITC and SPR; co-purified with Bre1-LR for the …
